This is an account of results in paper PMC2828547, “UIF, a New mRNA Export Adaptor that Works Together with REF/ALY, Requires FACT for Recruitment to mRNA” (Current Biology, 2009).

For the experiment, the target named is T1, GST-UAP56 (UniProt Q13838 1-428).
T1 construct: UAP56
The experiment is described as follows: pull-down; GST fusion proteins with purified UIF in the presence of RNase; Coomassie staining. As to conditions: both partners purified.

T1 sequence (Q13838 whole entry): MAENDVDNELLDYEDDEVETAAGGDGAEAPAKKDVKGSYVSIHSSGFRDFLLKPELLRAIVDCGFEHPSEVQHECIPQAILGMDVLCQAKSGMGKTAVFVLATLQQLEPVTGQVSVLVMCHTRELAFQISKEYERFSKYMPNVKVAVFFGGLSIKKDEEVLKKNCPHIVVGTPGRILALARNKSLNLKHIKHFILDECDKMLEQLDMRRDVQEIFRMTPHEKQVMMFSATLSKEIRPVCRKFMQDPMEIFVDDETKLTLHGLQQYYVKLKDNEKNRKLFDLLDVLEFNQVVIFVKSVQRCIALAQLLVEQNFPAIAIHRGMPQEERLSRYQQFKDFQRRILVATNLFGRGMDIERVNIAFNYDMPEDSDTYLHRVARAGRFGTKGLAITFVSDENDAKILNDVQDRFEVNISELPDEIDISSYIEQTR

B1: purified UIF (recombinant) (natural protein, human, UniProt Q96QD9 1-318, looked up)
chain: MNRFGTRLVGATATSSPPPKARSNENLDKIDMSLDDIIKLNRKEGKKQNFPRLNRRLLQQSGAQQFRMRVRWGIQQNSGFGKTSLNRRGRVMPGKRRPNGVITGLAARKTTGIRKGISPMNRPPLSDKNIEQYFPVLKRKANLLRQNEGQRKPVAVLKRPSQLSRKNNIPANFTRSGNKLNHQKDTRQATFLFRRGLKVQAQLNTEQLLDDVVAKRTRQWRTSTTNGGILTVSIDNPGAVQCPVTQKPRLTRTAVPSFLTKREQSDVKKVPKGVPLQFDINSVGKQTGMTLNERFGILKEQRATLTYNKGGSRFVTVG
notes: it may be the GB1-6His-UIF of m18; also called recombinant UIF
Take B1: the binding result is listed as “binds”.
